According to article PMC11748629, “Unidirectional MCM translocation away from ORC drives origin licensing” (Nature Communications, 2025):
One block for each substance: values may come before it.

Assays:
Test in all cases: negative stain EM with 2D averaging; DH loading reaction in solution, no downstream purification: 10 nM MH-NCP-ARS1-NCP DNA, 20 nM ORC, 30 nM Cdc6, 0.5 mM ATP, 20 nM MCM-Cdt1; 25 mM HEPES pH 7.6, 100 mM potassium chloride, 10 mM magnesium acetate, 1 mM DTT; 30 °C, 30 min; DH counted as % of averageable MCM particles, N = 3; assemblies form on DNA
[1] = molecular target: MCM-Cdt1 complex with Mcm7 R593A (Arginine Finger variant) (Saccharomyces cerevisiae) (UniProt P29469)
[2] = molecular target: MCM-Cdt1 complex with Mcm2 R676A (Arginine Finger variant) (Saccharomyces cerevisiae) (UniProt P29469)
[3] = molecular target: MCM-Cdt1 complex with Mcm4 R701A (Arginine Finger variant) (Saccharomyces cerevisiae) (UniProt P29469)
[4] = molecular target: MCM-Cdt1 complex with Mcm6 R708A (Arginine Finger variant) (Saccharomyces cerevisiae) (UniProt P29469)
[5] = molecular target: MCM-Cdt1 complex with Mcm3 R542A (Arginine Finger variant) (Saccharomyces cerevisiae) (UniProt P29469)
[6] = molecular target: MCM-Cdt1 complex, wild type (expressed in yeast) (Saccharomyces cerevisiae) (UniProt P29469)

DH as % of averageable MCM particles [1]: 5.3%
Substance: MCM-Cdt1 complex with Mcm7 R593A (Arginine Finger variant), P29469 1-868; P24279 1-971; P30665 1-933; P29496 1-775; P53091 1-1017; P38132 1-845; P47112 1-604

DH as % of averageable MCM particles [2]: 0.5%
Substance: MCM-Cdt1 complex with Mcm2 R676A (Arginine Finger variant), P29469 1-868; P24279 1-971; P30665 1-933; P29496 1-775; P53091 1-1017; P38132 1-845; P47112 1-604

DH as % of averageable MCM particles [3]: 22.4%
Substance: MCM-Cdt1 complex with Mcm4 R701A (Arginine Finger variant), P29469 1-868; P24279 1-971; P30665 1-933; P29496 1-775; P53091 1-1017; P38132 1-845; P47112 1-604

DH as % of averageable MCM particles [4]: 2.4%
Substance: MCM-Cdt1 complex with Mcm6 R708A (Arginine Finger variant), P29469 1-868; P24279 1-971; P30665 1-933; P29496 1-775; P53091 1-1017; P38132 1-845; P47112 1-604

DH as % of averageable MCM particles [5]: 13.9%
Substance: MCM-Cdt1 complex with Mcm3 R542A (Arginine Finger variant), P29469 1-868; P24279 1-971; P30665 1-933; P29496 1-775; P53091 1-1017; P38132 1-845; P47112 1-604

DH as % of averageable MCM particles [6]: 56.5%
Substance: MCM-Cdt1 complex, wild type (expressed in yeast), P29469 1-868; P24279 1-971; P30665 1-933; P29496 1-775; P53091 1-1017; P38132 1-845; P47112 1-604
